The chains are these.
B1: CPEB3 Ribozyme (parent)
chain: UAACAGGGGGCCACAGCAGAAGCGUUCACGUCGCAGCCCCUGUCAGAUUCUGGUGAAUCUGCGAAUUCUGCUGUAUAUCUC

The variants in this series derive from B1. The series can be described thus: self-cleavage, relative activity (ratio to wild type); higher = more cleavage; in vitro, sequencing. The gist of the method:
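Barcoded CPEB3 ribozyme mutants, produced by rounds of error-prone PCR, self-cleaved while being transcribed with T7 RNA polymerase for 5 hours at 37°C and during a subsequent 15 min DNase I step before EDTA was added. Sequencing of template-switched cDNA on Illumina gave cleaved and total reads, and DNA sequencing assigned barcodes to variants. Each variant's relative activity is its cleaved/total read fraction divided by the unmutated ribozyme's fraction, averaged across three batches. A variant needed a minimum of 5 reads.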
Regarding G10A C44U, the self-cleavage amounted to 0.21.
As to G7A C40A, the self-cleavage is 0.18.
Take G36A U54A: the self-cleavage was 0.31.
The same measure for G8A A13U: 0.3.
The figure for C17A A21G is 0.25.
For U54A U58A, the self-cleavage is 0.45.
Regarding A64U, the self-cleavage worked out at 0.32.
The figure for A56C C62A is 0.24; for A15G U69G it is 0.32; for U58A U60A it is 0.17.
The figure for C62A A77G is 0.24.
The same measure for U26C U48A: 0.23; for A28G C39U: 0.57; for U41C C50A: 0.94.
As to A5G A57G, the self-cleavage turned out to be 0.64.
On to C38U A57U, for which the self-cleavage was 0.39.
As to A21G G30U, the self-cleavage came to 0.21.
With U26C G70A, the self-cleavage is 0.59.
The same measure for A35U U54C: 0.5; for U69A U80C: 0.56.
The figure for G8A U69A is 0.28; for A15U U41C it is 0.92.
For G9C U51A, the self-cleavage came out at 0.09.
As to G8U U51A, the self-cleavage was 0.08.
As to C4A U74C, the self-cleavage is 1.22.
Regarding U66A U80G, the self-cleavage is 0.64.
A45G A75C: the self-cleavage was 1.01.
The same measure for A13G G24A: 0.27; for A35G A77G: 1.39; for A20U A35U: 0.22.
The same measure for G33U G36U: 0.13; for C50A U60A: 0.27.
As to A45G U76A, the self-cleavage was 0.96.
The same measure for C32U A47G: 0.19; for A56U A64C: 0.19.
The figure for A13U U72G is 0.76.
The figure for A13G U66C is 0.35; for A18U A35U it is 0.22.
For the variant C37U G55U, the self-cleavage was 0.88.
On to C17U U48A, for which the self-cleavage amounted to 0.24.
In the case of C14U A47U, the self-cleavage was found to be 1.21.
G9A U26C: the self-cleavage worked out at 0.21.
As to C37U C71G, the self-cleavage worked out at 0.21.
A13U C81U: the self-cleavage came to 1.2.
The same measure for U31A G33U: 0.13; for G36A U67C: 0.13; for A21C U60C: 0.07.
The figure for G19A U80C is 0.27.
A15U U69G: the self-cleavage was 0.34.
Take A75U A77G: the self-cleavage is 1.18.
The same measure for G24A G52U: 0.37; for A47G A77U: 1.06.
Regarding A15U U58C, the self-cleavage was determined as 0.26.
Consider C44A U72C, for which the self-cleavage worked out at 0.71.
On to C44A U78C, for which the self-cleavage was 0.38.
For G33C U67C, the self-cleavage came out at 0.12.
The figure for A5C G55U is 1.13.
Regarding G33A U80G, the self-cleavage turned out to be 0.14.
Regarding A5U C38A, the self-cleavage came to 0.34.
The same measure for C14U C29U: 0.72; for U51A U80G: 1.18; for C50A U54C: 0.83.
Turning to U1A C37A, the self-cleavage was found to be 0.31.
The same measure for U48G U66C: 0.45.
With A18U G22U, the self-cleavage was 0.24.
The same measure for C11G C17U: 0.19; for G6U A75G: 0.09; for U25A A64U: 0.19.
C39A A57G: the self-cleavage came to 0.3.
The figure for C11G U48C is 0.11.
The figure for A56G C68U is 0.77; for G6A A47U it is 0.32; for U51C U54A it is 1.03.
As to U31C U51A, the self-cleavage is 0.89.
The same measure for A21G A28U: 0.38; for C29U A77C: 0.5.
Consider A20U C29U, for which the self-cleavage came to 0.15.
As to A18G G46U, the self-cleavage stood at 0.16.
The figure for U43C A75C is 0.84; for U51C C59U it is 0.68.
The figure for U31A U58C is 0.36; for A18C C79A it is 0.9.
In the case of A18U U80C, the self-cleavage was 0.52.
Regarding C29U C39A, the self-cleavage was 0.28.
Consider A45C A65G, for which the self-cleavage amounted to 0.42.
A3U C11G: the self-cleavage was 0.4.
The figure for U51A A64G is 0.93.
A2C U80A: the self-cleavage turned out to be 1.2.
On to U60A A64U, for which the self-cleavage amounted to 0.33.
U51A U72A: the self-cleavage turned out to be 0.69.
The figure for G10U A57U is 0.07.
The same measure for C12U U41G: 0.28; for A5G C81A: 1.1.
The figure for A13G C39A is 0.28; for C37G U43C it is 0.29; for G8A C17U it is 0.25.
Regarding G7A C12U, the self-cleavage was found to be 0.07.
As to U41G U43A, the self-cleavage was determined as 0.28.
The same measure for G30A U67A: 0.22; for G30A U67C: 0.18.
The figure for A28G G63U is 0.8; for C11A G33A it is 0.07; for U26A A35C it is 0.65.
Turning to A20G U49G, the self-cleavage came out at 0.28.
The figure for U26C A77U is 0.53.
The figure for A57G U76C is 1.01.
On to A5U C81U, for which the self-cleavage was determined as 1.17.
With A35G A45C, the self-cleavage is 1.17.
The same measure for U48A A77G: 0.54.
The same measure for U66G C68G: 0.29; for A56U A75U: 0.79; for A2U C62G: 0.31.
The figure for A56G U72C is 0.93.
For U60G U67C, the self-cleavage was 0.13.
The same measure for C37G A57G: 0.44; for A56U U69C: 0.38.
In the case of A35U U41A, the self-cleavage was 0.3.
On to A13U U58C, for which the self-cleavage is 0.72.
The same measure for A35U U43G: 0.15; for G8U A65G: 0.34.
G10C A64G: the self-cleavage came to 0.25.
The figure for C4G U51A is 1.15; for A2U A18U it is 0.41; for C81G it is 1.14.
Consider A28G G55U, for which the self-cleavage was determined as 0.68.
As to C12U U60A, the self-cleavage was 1.04.
The figure for G7A U66C is 0.13.
The same measure for C39U U43C: 0.35; for G70A U78C: 0.8.
The same measure for C4U A18U: 0.73.
G33C U60C: the self-cleavage is 0.11.
In the case of A28U C39A, the self-cleavage came out at 0.15.
As to U26C G63C, the self-cleavage came to 0.41.
For G8C A21G, the self-cleavage amounted to 0.06.
For the variant G55C U67A, the self-cleavage came out at 0.44.
Regarding U26A G30C, the self-cleavage was determined as 0.24.
Regarding A5G A28G, the self-cleavage came out at 0.48.
The same measure for A5G A77G: 0.71; for A57U U76C: 0.94.
The figure for A18C A20G is 0.44; for A2G G22U it is 0.07.
The figure for C29G U54A is 0.28.
Consider U1C C79U, for which the self-cleavage was 0.8.
With C68A U74C, the self-cleavage stood at 0.86.
The same measure for U41G U48C: 0.36; for A15C G73A: 1.26.
The same measure for U31G C62G: 0.15; for A3U U54C: 1.04.
The same measure for C50G U72C: 0.75.
Turning to G9U A15G, the self-cleavage turned out to be 0.14.
On to G9A U60A, for which the self-cleavage came out at 0.22.
Turning to A77G U80G, the self-cleavage worked out at 1.21.
As for A21U U58C, the self-cleavage came out at 0.12.
As for A5U G61U, the self-cleavage stood at 0.72.
In the case of U25C U60G, the self-cleavage stood at 0.13.
The same measure for U1A C23U: 0.22; for U41A U49C: 0.23.
The same measure for A18G U72G: 0.29; for G10A C71G: 0.12.
The same measure for A64G U80A: 1.03; for A15G C50A: 0.4; for A28U C29U: 0.48.
On to G19A A75G, for which the self-cleavage was 0.09.
Regarding C27G U80A, the self-cleavage was 0.22.
The figure for A18G U26C is 0.33; for A5U A28U it is 1.12; for U31A U78C it is 0.46.

For the origin of these results see the RNAGym collection of RNA variant scans (doi:10.1093/nar/gkz1192).
